Measurements from paper PMC9776393, “Gold Nanoparticles-MWCNT Based Aptasensor for Early Diagnosis of Prostate Cancer”.

Target: prostate-specific antigen (PSA) (human (semen), UniProt P07288 25-261)
Assay: electrochemical aptasensor (DPV); MCH-blocked MWCNT/AuNP electrode; LoD 1 pg/mL, linear 1-100 ng/mL (abstract) or 0.001-100 ng/mL (Table 2); PBS pH 7.2, [Fe(CN)6]3-/4- redox probe, 5 min binding; aptamer heated to 95 C and cooled, immobilized at room temperature with MgCl2 and NaCl; binding temperature not stated
Conditions: protein: commercial

Chain of prostate-specific antigen (PSA) (P07288 25-261): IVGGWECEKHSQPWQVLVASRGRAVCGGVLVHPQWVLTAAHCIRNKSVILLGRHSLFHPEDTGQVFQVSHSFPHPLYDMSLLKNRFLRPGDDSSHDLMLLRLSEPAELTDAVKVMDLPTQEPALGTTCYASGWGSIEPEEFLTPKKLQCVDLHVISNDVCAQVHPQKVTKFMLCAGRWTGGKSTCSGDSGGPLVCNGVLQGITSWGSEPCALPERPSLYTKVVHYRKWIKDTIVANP

## TTTTTAATTAAAGCTCGCCATCAAATAGCTTT (ssDNA, 5'-HS-(CH2)6 thiol) [PSA aptamer]
  binding result: binds
